The values below come from the supplement of paper PMC10126150.

This series concerns ATP. Kind of series: switch fluorescence ratio, 500 uM ATP over buffer (Cy3 cluster intensity, sum of 5 cycles each) (fold (ratio)); higher = stronger signal-on switching upon ATP binding; sequences stand for … in TCGTCGGCAGCGTCAGATGTGTATAAGAGACAGTTTTTTTTTTTTTTTTTTTTTTTTT…TC. As to conditions: aptamer strand: ATP DNA aptamer (quencher-CACCTGGGGGAGTATTGCGGAGGAAGG + anchor), 100 nM annealed; ATP concentration: 500 uM. In short, it runs like this: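 After annealing to 100 nM quencher-labelled ATP aptamer, Cy3-labelled switching-strand clusters on a modified Illumina MiSeq flow-cell were imaged in selection buffer. A second image followed after 15 min with 500 uM ATP at 22 °C, and five such buffer/ATP cycles were done, each separated by NaOH stripping and re-annealing. The fluorescence ratio, averaged per switch-domain sequence, is summed target-cycle over summed buffer-cycle Cy3 intensity per cluster, with clusters outside 100-1000 RFU excluded.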

± gives the standard deviation of the averaged measurements.
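Note: ATP exposure 15 min at 22 °C before imaging.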

As to GTTGGAGGCG, the switch fluorescence ratio was determined as 0.969 ± 0.049.
The value for CCCTAACCCG was 1.18 ± 0.055.
The value for TACGATTTAT was 1.018 ± 0.0096; that for CAATGGAAGA was 0.989 ± 0.014.
The value for TGGAGAAGGC was 0.977 ± 0.12; that for TGATGAAGAT was 0.9817 ± 0.0071; that for AAAATGTCGA was 1 ± 0.024.
Take TCGATCTACT: the switch fluorescence ratio amounted to 1.06 ± 0.024.
The value for GACTAGTGGT was 1.01 ± 0.035.
With CGGGGGTTTG the figure was 1.01 ± 0.031; with ACTTATCATT, 1.04 ± 0.013; with GAGTGCAGGA, 1.01 ± 0.033.
With CTAATGAGGG the figure was 1.02 ± 0.036.
Consider TTTAGTCTGC, for which the switch fluorescence ratio is 0.993 ± 0.018.
With GAGCTTTTCA the figure was 0.965 ± 0.023.
With TTGCATGGTG the figure was 1.06 ± 0.03; with AACAGAAGAG, 1.007 ± 0.01; with GAACGGGACA, 1.18 ± 0.065.
For GGATTAGG, the switch fluorescence ratio was found to be 0.99 ± 0.025.
With ACGTTAATGA the figure was 1.121 ± 0.002; with TAAATAAATG, 0.976 ± 0.048; with TTTAGGCATG, 0.9966 ± 0.0076.
With CAGCATTGGG the figure was 0.978 ± 0.038; with AGGCAGCTAT, 1.05 ± 0.038; with ACAATATTTT, 1.02 ± 0.02.
As to GCTCGTACGA, the switch fluorescence ratio was determined as 1.03 ± 0.027.
The value for TCGGTTGGTG was 0.969 ± 0.042; that for AGGCAGGGGG was 1.03 ± 0.021; that for TCGTCGCGTA was 0.978 ± 0.14.
The value for CGCGACGAGT was 0.9823 ± 0.0053.
With TTGGAAAAGG the figure was 1.02 ± 0.029; with AAAGTCATCT, 0.995 ± 0.023; with TTGAGGGGCA, 1.01 ± 0.033.
On to TAGGACGAGG, for which the switch fluorescence ratio worked out at 1.02 ± 0.021.
With TTAGATTACG the figure was 0.998 ± 0.021; with GAGTATGTTC, 0.95 ± 0.017.
With ATTACCTATA, the switch fluorescence ratio is 1.05 ± 0.044.
The value for AAAGTTCAGT was 0.98958 ± 0.00071; that for GGGTTCCGGG was 1.02 ± 0.021; that for TAGGGCATAT was 1.1 ± 0.073.
With TTACGCAACC the figure was 2.91 ± 0.58.
AAGTGAATTA: the switch fluorescence ratio was 1.0037 ± 0.00073.
With CGGGCCTTGG the figure was 1.026 ± 0.0016; with GGTTTGCAGG, 0.967 ± 0.05.
With TGATAATAGT the figure was 0.989 ± 0.021; with TTGTGTTTCG, 0.967 ± 0.028.
The value for CAGTCTTATT was 0.9712 ± 0.0087; that for TCTATAGGGG was 1 ± 0.05; that for ACAGTTTTGG was 1.017 ± 0.0047.
Take ACAGCGGATG: the switch fluorescence ratio stood at 1.028 ± 0.0095.
The value for GGTAGGACTC was 1 ± 0.026; that for ACGGTAAACT was 1.18 ± 0.065.
With AGAAGATTGG the figure was 0.9723 ± 0.0053.
The value for GGGGAAAGCA was 1 ± 0.015; that for TTTCGGTTTT was 1.04 ± 0.11; that for AAAGGGCGGG was 1.016 ± 0.0049.
In the case of ATTTATTTAG, the switch fluorescence ratio was 0.987 ± 0.022.
With TTGTGAAGGT the figure was 1.05 ± 0.044; with TACGCACATA, 1.48 ± 0.15; with TGTGACTGCC, 1.04 ± 0.055.
The value for TTCTGTTAGC was 1.03 ± 0.043; that for TAGAATAGTC was 0.974 ± 0.01.
In the case of GCCGATAGGG, the switch fluorescence ratio amounted to 0.9975 ± 0.0039.
With CTGGGGGGCG the figure was 0.984 ± 0.066; with TGCAAAATTG, 0.995 ± 0.024.
Regarding ACAGTGCGCG, the switch fluorescence ratio came out at 1.03 ± 0.083.
